{
  "source": "patent US5618693",
  "about": "“Interleukin-2 signal transducers and binding assays” (Tularik, Inc.)",
  "binders": {"B1": {"name": "FcgRI IL-4 response element probe (dsDNA)", "DNA 1": "GTATTTCCCAGAAAAGGAAC", "DNA 2": "GTTCCTTTTCTGGGAAATAC"}},
  "target": "hStat 5 (affinity purified, 98/94/88 kD from YT cells; 96/95 kD from PBLs) (Homo sapiens, UniProt P42229 SEQ:1-794)",
  "sequence (P42229 whole entry)": "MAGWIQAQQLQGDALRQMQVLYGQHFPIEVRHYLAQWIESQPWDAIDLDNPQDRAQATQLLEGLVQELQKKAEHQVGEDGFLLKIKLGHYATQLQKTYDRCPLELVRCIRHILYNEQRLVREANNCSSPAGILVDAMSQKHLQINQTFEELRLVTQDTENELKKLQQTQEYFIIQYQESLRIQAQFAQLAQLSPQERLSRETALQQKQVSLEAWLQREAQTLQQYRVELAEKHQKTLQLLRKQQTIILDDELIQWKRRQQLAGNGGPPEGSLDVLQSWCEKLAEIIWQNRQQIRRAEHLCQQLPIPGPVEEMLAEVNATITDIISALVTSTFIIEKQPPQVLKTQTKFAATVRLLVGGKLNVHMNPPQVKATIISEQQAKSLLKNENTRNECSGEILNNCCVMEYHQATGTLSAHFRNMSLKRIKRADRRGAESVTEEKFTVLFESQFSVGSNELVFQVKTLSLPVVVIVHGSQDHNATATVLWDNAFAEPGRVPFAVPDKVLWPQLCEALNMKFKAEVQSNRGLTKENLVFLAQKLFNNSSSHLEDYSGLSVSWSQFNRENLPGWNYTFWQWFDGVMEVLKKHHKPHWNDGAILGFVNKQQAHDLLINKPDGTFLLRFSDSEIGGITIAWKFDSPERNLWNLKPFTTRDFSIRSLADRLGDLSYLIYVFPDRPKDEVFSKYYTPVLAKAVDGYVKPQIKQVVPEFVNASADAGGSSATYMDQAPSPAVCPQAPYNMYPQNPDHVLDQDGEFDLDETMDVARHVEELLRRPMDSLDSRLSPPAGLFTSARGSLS",
  "assay": "pulldown; biotinylated DNA on streptavidin agarose, buffer C, 4 C; retained through wash with mutant oligo 0.2 mg/ml, eluted 0.35 M NaCl",
  "conditions": "tags: native, tyrosine phosphorylated; chain copies: 2",
  "procedure": "After dialysis, insoluble proteins were removed by centrifugation and the remaining material was chromatographed over a 100 ml S-Sepharose (Pharmacia) column. Protein flow-through was mixed with a DNA-affinity resin prepared by coupling synthetic, biotinylated DNA corresponding to the IL-4 response element of the gene encoding FcgRI (5'-[…]-3) (SEQ ID NO:3) to streptavidin agarose (Sigma). After binding (2 hours at 4° C.), the affinity matrix was placed on a disposable column and washed sequentially with 10 ml of buffer C, 4 ml of buffer C supplemented with a mutated variant of the IL-4 response element (5'-GTATCACCAGTCAAGGAAC-3') (SEQ ID NO:4) at 0.2 mg/ml, and 10 ml of buffer C. Protein was eluted by exposure to buffer C supplemented with 0.35M NaCl, dialyzed against buffer C, and placed on a 0.5 ml Q-Sepharose (Pharmacia) column. The column was washed with 5 ml of buffer C and protein was eluted with 1 ml of buffer C supplemented with 0.35M NaCl.",
  "data": [
    {"binder": "B1", "values": [
      {"measurement": "binding result", "result": "binds"}
    ]}
  ]
}
